B1: SDF-1α variant: Triple mutant of SDF-1α (Lys24Ala, His25Ala, Lys27Ala), SEQ ID NO: 4, reduced GAG binding activity (protein)
chain: KPVSLSYRCPCRFFESHVARANVAALAILNTPNCALQIVARLKNNNRQVCIDPKLKWIQEYLEKALNK
modifications: Human
B2: IL-10: control molecule shown to inhibit cytokine release from activated microglia (protein, UniProt P18893 19-178, looked up)
Interleukin-10: SRGQYSREDNNCTHFPVGQSHMLLELRTAFSQVKTFFQTKDQLDNILLTDSLMQDFKGYLGCQALSEMIQFYLVEVMPQAEKHGPEIKEHLNSLGEKLKTLRMRLRRCHRFLPCENKSKAVEQVKSDFNKLQDQGVYKAMNEFDIFINCIEAYMMIKMKS

How the values were obtained:
sciatic nerve crush mice = test: Neuropathy induced by sciatic nerve crush, electrophysiological recording (CMAP); type: in vivo, mouse
Procedure: […] 8 week-old females C57bl/6 RJ mice (Elevage Janvier, Le Genest-St-Isle, France) were used. They were divided into 6 groups (n=6): • (a) nerve crush/Vehicle (Saline/0.02% BSA); • (b) nerve crush/SDF-1α (3 μg/kg); • (c) nerve crush/SDF-1α (10 μg/kg); • (d) nerve crush/SDF-1α (30 μg/kg); • (e) nerve crush/SDF-1α (100 μg/kg); • (f) nerve crush/IL-6 (30 μg/kg).
The animals were anaesthetized by inhalation of 3% Isoflurane (Baxter). The right sciatic nerve was surgically exposed at mid thigh level and crushed at 5 mm proximal to the trifurcation of the sciatic nerve. The nerve was crushed twice for 30s with a haemostatic forceps (width 1.5 mm; Koenig; Strasbourg; France) with a 90-degree rotation between each crush.
Electromyographical (EMG) testing was performed once before the surgery day and each week during 3 weeks following the operation.
The day of nerve crush surgery was considered as dpl 0 (dpl=day post lesion). No test was performed during the 4 days following the crush.
From the day of nerve injury to the end of the study, SDF-1α, IL-6 or Vehicle were administered daily by subcutaneous injections (s.c.) route, 5 days per week.
Electrophysiological recordings were performed using a Neuromatic 2000M electromyograph (EMG) (Dantec, Les Ulis, France). Mice were anaesthetized by inhalation of 3% Isofluran® (Baxter). The normal body temperature was maintained using a heated operating table (Minerve, Esternay, France).
Compound muscle action potential (CMAP) was measured in the gastrocnemius muscle after a single 0.2 ms stimulation of the sciatic nerve at a supramaximal intensity (12.8 mA). The amplitude (mV) and the latency (ms) of the action potential were measured on the operated leg. The measures was also registered on the contralateral (uncrushed) leg of Vehicle treated animals (Baseline). The amplitude is indicative of the number of active motor units, while the distal latency indirectly reflects motor nerve conduction and neuromuscular transmission velocities, which depends in part on the degree of myelination.
Global analysis of the data was performed using one-way ANOVA. Dunnett's test was used further, and data were compared to the “vehicle” control. The level of significance was set at a: p<0.001; b or **: p<0.01; c or *: p<0.05; d: p<0.1. The results were expressed as mean ±standard error of the mean (s.e.m.).
The sciatic nerve crush model described in Example 4 above was carried out to test SDF-1α variant as defined in SEQ ID NO: 4 and the mice were divided into the following 2 groups (n=6):
The SDF-1α variant used in this example and encoded by SEQ ID NO: 4 was expressed with an additional N terminal Methionine. The CMAP duration (time needed for a depolarization and a repolarization session) was also recorded.
The sciatic nerve crush model described in Example 4 above was carried out to test Met-SDF-1α (as defined in SEQ ID NO: 7) and the mice were divided into the following 2 groups (n=6):
(b) nerve crush/Met-SDF-1α variant at 100, 30, and 10 μg/kg s.c.

[1] = system: primary mixed cortical cultures stimulated with LPS; test: Cytokine release (TNF-α, IL-6) from LPS stimulated primary mixed cortical cultures; type: cell-based, mouse; details: for levels of IL-6 secretion / levels of TNF-α secretion: pre-incubation 3 h (SDF proteins 0.001, 0.1, 10 ng/ml; IL-10 10 ng/ml; dexamethasone 25 pM), then LPS 5 ng/ml 48 h, ELISA, compared to untreated cells
Procedure: Culturing of primary cells was performed as described (Lubetzki et al., 1993) using brain tissue from embryos isolated from NMRI mice at 16 days post-coitum. Cerebral hemispheres were dissected from embryo brains, dissociated via trypsin digestion and the single cell suspension was seeded at 5×10^4 cells in 50 μl myelination medium per well onto BioCoat® poly-L-lysine coated 96-well plates (356516, Becton Dickinson). The myelination medium consisted of Bottenstein-Sato medium (Bottenstein and Sato, 1979; Sadir et al., 2001), supplemented with 1% FCS, 1% penicillin-streptomycin solution (Seromed) and recombinant platelet-derived growth factor AA (PDGF-AA, R&D Systems) at 10 ng/mL.
For testing the effects of SDF-1α and SDF-1α variant (as defined in SEQ ID NO: 4) on LPS stimulated cultures, cells were allowed to grow for two weeks. At day 14 cells were pre-incubated with increasing concentrations (0.001, 0.1 and 10 ng/ml) of the corresponding proteins into 25 μl of medium for three hours at 37° C. and 10% CO2. LPS was then supplemented to the cells at the concentration of 5 ng/ml into 25 μl of medium to obtain a final volume of 100 μl and incubated for 48 hours. Supernatants were collected at day 16 and the levels of TNF-α and IL-6 (the major cytokines released by activated microglia) were measured via specific ELISAs purchased from R&D systems (DuoSet mouse TNF-α ELISA DY410, mouse IL-6 ELISA DY406).
Global analysis of the data was performed using one-way ANOVA. Dunnett's test was used further, and data were compared to the “untreated cells”. The level of significance was set at a: p<0.001; b or **: p<0.01; c or *: p<0.05; d: p<0.1. The results were expressed as mean ±standard error of the mean (s.e.m.).

[2] = system: leukocytes recruited in the peritoneal cavity; test: In vivo model of peritoneal cell recruitment; parameters: species or system mouse; details: 4 μg i.p. in Balb/C mice, 4 hours post injection
Procedure: 8-12 week old, female Balb/C mice (Janvier, France) were injected intra peritoneally (i.p.) with 200 μl NaCl (0.9%, LPS free) or chemokine 4 μg (WT SDF-1α or SDF-1α variant according to SEQ ID NO:4 diluted in 200 μl NaCl (0.9%, LPS free). […] of WT or mutant SDF-1α, mice were sacrificed by CO2 asphyxiation, the peritoneal cavity was washed with 3×5 ml ice cold PBS and the total lavage was pooled for individual mice. Total cells collected were counted by haemocytometer (Neubauer, Germany).

Row | Molecule | CMAP latency vs vehicle treated mice (sciatic nerve crush mice; 100, 30, and 10 μg/kg s.c., day 7 and day 14 after crush) | levels of IL-6 secretion [1] | levels of TNF-α secretion [1] | best concentration for decrease of TNF-α and IL-6 secretion ([1]; tested 0.001, 0.1 and 10 ng/ml, LPS 5 ng/ml 48 h) [ng/mL] | leukocyte recruitment in the peritoneal cavity [2] | CMAP duration vs vehicle treated mice (sciatic nerve crush mice; 30 μg/kg s.c., 7 dpl and 22 dpl) | CMAP amplitude (sciatic nerve crush mice; 30 μg/kg s.c., 22 dpl) | CMAP latency vs vehicle treated mice (sciatic nerve crush mice; 30 μg/kg s.c., 22 dpl) | CMAP latency vs vehicle treated mice (sciatic nerve crush mice; 30 μg/kg s.c., especially at 7 dpl)
1 | Met-SDF-1α: Human mature isoform SDF-1α having an additional N-terminal Methionine, SEQ ID NO: 7 | significantly reduced |  |  |  |  |  |  |  | 
2 | B1 |  | significantly decreased | significantly decreased | 10 | did not recruit leukocytes | reduced | significant increase | positive effect | significantly reduced
3 | B2 |  | down regulated | down regulated |  |  |  |  |  | 
